Data published in article doi:10.1101/400432, “The deadly touch: protein denaturation at the water-air interface and how to prevent it” (bioRxiv, 2018).

Assays:
[1] = biological target: T1, fatty acid synthase subunit encoded by FAS1, twinStrep-II tagged (Saccharomyces cerevisiae) (S. cerevisiae, UniProt P07149 1-2051); experiment: cryo-EM structure; single-particle cryo-EM of purified FAS complex (0.2 mg/ml) on Quantifoil R0.6/1 grids coated with graphene hydrophilized with 1-pyrCA; about 28,000 particles; maps at 4.8 Å (C1) and 4.0 Å (D3); conditions: both partners purified
T1 construct: Fatty acid synthase subunit encoded by the FAS1 gene, S. cerevisiae; expressed from plasmid pMF639 (pRS315_FAS1-twinStrep-II); also called strep-tagged FAS; beta (beta-domes)

[2] = biological target: the molecule itself; experiment: as above

T1 sequence (P07149 whole entry): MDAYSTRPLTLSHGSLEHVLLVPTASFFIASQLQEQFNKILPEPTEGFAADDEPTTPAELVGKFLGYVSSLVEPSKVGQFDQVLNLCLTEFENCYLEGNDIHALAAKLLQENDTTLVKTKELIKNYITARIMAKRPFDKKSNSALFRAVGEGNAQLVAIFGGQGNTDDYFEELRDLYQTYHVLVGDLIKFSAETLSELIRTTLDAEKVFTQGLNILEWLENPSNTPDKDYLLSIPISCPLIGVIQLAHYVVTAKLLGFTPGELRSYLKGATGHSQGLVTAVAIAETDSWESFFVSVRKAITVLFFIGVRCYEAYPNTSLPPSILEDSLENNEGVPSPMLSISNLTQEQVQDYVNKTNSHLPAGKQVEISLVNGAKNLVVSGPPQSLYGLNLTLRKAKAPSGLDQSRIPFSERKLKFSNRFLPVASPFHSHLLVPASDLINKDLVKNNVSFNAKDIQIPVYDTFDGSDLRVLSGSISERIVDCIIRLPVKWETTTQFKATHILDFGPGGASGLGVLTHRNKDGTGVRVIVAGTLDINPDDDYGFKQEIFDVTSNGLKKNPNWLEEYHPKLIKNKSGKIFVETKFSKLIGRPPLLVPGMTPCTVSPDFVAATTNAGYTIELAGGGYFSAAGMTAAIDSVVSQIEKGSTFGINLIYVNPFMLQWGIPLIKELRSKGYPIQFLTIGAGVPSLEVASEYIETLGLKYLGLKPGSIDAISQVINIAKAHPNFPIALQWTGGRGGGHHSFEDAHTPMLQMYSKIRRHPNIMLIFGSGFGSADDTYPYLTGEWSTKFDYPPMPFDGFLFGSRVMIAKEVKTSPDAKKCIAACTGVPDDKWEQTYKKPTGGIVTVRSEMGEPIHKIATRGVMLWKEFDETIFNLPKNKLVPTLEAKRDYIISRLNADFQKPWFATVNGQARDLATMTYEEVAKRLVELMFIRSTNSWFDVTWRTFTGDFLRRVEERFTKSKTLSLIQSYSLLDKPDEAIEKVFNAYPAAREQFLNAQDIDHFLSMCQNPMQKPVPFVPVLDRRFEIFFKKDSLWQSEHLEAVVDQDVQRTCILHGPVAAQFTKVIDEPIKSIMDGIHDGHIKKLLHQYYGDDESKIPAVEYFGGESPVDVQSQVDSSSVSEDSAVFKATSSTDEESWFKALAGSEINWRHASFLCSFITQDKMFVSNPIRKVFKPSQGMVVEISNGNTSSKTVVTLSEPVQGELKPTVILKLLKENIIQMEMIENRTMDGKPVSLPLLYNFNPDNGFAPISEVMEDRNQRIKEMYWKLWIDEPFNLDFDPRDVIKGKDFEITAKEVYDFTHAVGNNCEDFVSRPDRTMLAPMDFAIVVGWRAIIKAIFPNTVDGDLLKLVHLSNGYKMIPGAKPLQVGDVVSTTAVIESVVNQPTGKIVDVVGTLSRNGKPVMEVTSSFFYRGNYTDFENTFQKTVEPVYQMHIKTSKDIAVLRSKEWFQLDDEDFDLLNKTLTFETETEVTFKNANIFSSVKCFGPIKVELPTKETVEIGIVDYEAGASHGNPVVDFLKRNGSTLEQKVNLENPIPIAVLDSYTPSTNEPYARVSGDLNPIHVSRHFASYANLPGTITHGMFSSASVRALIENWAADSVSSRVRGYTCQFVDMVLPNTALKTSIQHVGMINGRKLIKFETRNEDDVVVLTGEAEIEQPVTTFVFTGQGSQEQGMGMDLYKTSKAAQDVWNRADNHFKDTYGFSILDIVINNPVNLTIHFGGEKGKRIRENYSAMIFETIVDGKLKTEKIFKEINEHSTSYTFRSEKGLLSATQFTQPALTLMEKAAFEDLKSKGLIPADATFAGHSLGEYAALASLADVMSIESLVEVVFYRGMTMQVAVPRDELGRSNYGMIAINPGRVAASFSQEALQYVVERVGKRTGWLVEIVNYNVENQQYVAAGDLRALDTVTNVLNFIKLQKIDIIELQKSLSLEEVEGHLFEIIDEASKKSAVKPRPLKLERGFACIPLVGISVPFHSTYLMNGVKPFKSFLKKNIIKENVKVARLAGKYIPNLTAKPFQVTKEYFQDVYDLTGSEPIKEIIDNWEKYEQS

binding result [1]: binds
B1: fatty acid synthase subunit encoded by FAS2 (Saccharomyces cerevisiae) (enzyme, S. cerevisiae, UniProt P19097 1-1887, looked up)
chain: MKPEVEQELAHILLTELLAYQFASPVRWIETQDVFLKDFNTERVVEIGPSPTLAGMAQRTLKNKYESYDAALSLHREILCYSKDAKEIYYTPDPSELAAKEEPAKEEAPAPTPAASAPAPAAAAPAPVAAAAPAAAAAEIADEPVKASLLLHVLVAHKLKKSLDSIPMSKTIKDLVGGKSTVQNEILGDLGKEFGTTPEKPEETPLEELAETFQDTFSGALGKQSSSLLSRLISSKMPGGFTITVARKYLQTRWGLPSGRQDGVLLVALSNEPAARLGSEADAKAFLDSMAQKYASIVGVDLSSAASASGAAGAGAAAGAAMIDAGALEEITKDHKVLARQQLQVLARYLKMDLDNGERKFLKEKDTVAELQAQLDYLNAELGEFFVNGVATSFSRKKARTFDSSWNWAKQSLLSLYFEIIHGVLKNVDREVVSEAINIMNRSNDALIKFMEYHISNTDETKGENYQLVKTLGEQLIENCKQVLDVDPVYKDVAKPTGPKTAIDKNGNITYSEEPREKVRKLSQYVQEMALGGPITKESQPTIEEDLTRVYKAISAQADKQDISSSTRVEFEKLYSDLMKFLESSKEIDPSQTTQLAGMDVEDALDKDSTKEVASLPNKSTISKTVSSTIPRETIPFLHLRKKTPAGDWKYDRQLSSLFLDGLEKAAFNGVTFKDKYVLITGAGKGSIGAEVLQGLLQGGAKVVVTTSRFSKQVTDYYQSIYAKYGAKGSTLIVVPFNQGSKQDVEALIEFIYDTEKNGGLGWDLDAIIPFAAIPEQGIELEHIDSKSEFAHRIMLTNILRMMGCVKKQKSARGIETRPAQVILPMSPNHGTFGGDGMYSESKLSLETLFNRWHSESWANQLTVCGAIIGWTRGTGLMSANNIIAEGIEKMGVRTFSQKEMAFNLLGLLTPEVVELCQKSPVMADLNGGLQFVPELKEFTAKLRKELVETSEVRKAVSIETALEHKVVNGNSADAAYAQVEIQPRANIQLDFPELKPYKQVKQIAPAELEGLLDLERVIVVTGFAEVGPWGSARTRWEMEAFGEFSLEGCVEMAWIMGFISYHNGNLKGRPYTGWVDSKTKEPVDDKDVKAKYETSILEHSGIRLIEPELFNGYNPEKKEMIQEVIVEEDLEPFEASKETAEQFKHQHGDKVDIFEIPETGEYSVKLLKGATLYIPKALRFDRLVAGQIPTGWNAKTYGISDDIISQVDPITLFVLVSVVEAFIASGITDPYEMYKYVHVSEVGNCSGSGMGGVSALRGMFKDRFKDEPVQNDILQESFINTMSAWVNMLLISSSGPIKTPVGACATSVESVDIGVETILSGKARICIVGGYDDFQEEGSFEFGNMKATSNTLEEFEHGRTPAEMSRPATTTRNGFMEAQGAGIQIIMQADLALKMGVPIYGIVAMAATATDKIGRSVPAPGKGILTTAREHHSSVKYASPNLNMKYRKRQLVTREAQIKDWVENELEALKLEAEEIPSEDQNEFLLERTREIHNEAESQLRAAQQQWGNDFYKRDPRIAPLRGALATYGLTIDDLGVASFHGTSTKANDKNESATINEMMKHLGRSEGNPVIGVFQKFLTGHPKGAAGAWMMNGALQILNSGIIPGNRNADNVDKILEQFEYVLYPSKTLKTDGVRAVSITSFGFGQKGGQAIVVHPDYLYGAITEDRYNEYVAKVSAREKSAYKFFHNGMIYNKLFVSKEHAPYTDELEEDVYLDPLARVSKDKKSGSLTFNSKNIQSKDSYINANTIETAKMIENMTKEKVSNGGVGVDVELITSINVENDTFIERNFTPQEIEYCSAQPSVQSSFAGTWSAKEAVFKSLGVKSLGGGAALKDIEIVRVNKNAPAVELHGNAKKAAEEAGVTDVKVSISHDDLQAVAVAVSTKK
notes: Fatty acid synthase subunit encoded by the FAS2 gene, S. cerevisiae; expressed from plasmid pMF319d (pRS313_FAS2); also called alpha (alpha wheel)
binding result [2]: binds
